In article PMC5105163:

Target: HLA-DM, P28067;P28068
Experiment: SPR
Details: parent DR1/CW trace is at 10 µM, parent: est. 0, read off a plot

| response (5 µM DR1-βG84PβE87P/CW analyte over immobilised DM) [RU] | response (10 µM DR1-βE87P/CW analyte over immobilised DM) [RU] | Substance |
| --- | --- | --- |
| 270 | – | HLA-DR1/CLIP_(102-120)M107W complex (from UniProt P04233) βG84P; βE87P |
| – | 50 | HLA-DR1/CLIP_(102-120)M107W complex (from UniProt P04233) βE87P |
